Data taken from patent US20050282743A1, “Molecular interactions in cells” (Arbor Vita Corporation, priority 2001, published 2005).
Values joined by “and” are separate entries in the source; they are usually repeats but may differ in a detail not shown here. Equal values may be shown once.

Tests used:
[1] = target: T1, GST-TIP-1 (Example 3) (human), O14907; test: ratio of G assay Kd values
T1 chain: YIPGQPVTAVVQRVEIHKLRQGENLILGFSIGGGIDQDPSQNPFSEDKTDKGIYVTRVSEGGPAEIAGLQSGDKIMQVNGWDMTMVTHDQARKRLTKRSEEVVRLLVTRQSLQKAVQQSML

[2] = target: GST-DLG1 PDZ domains 1, 2 (Homo sapiens), Q12959; test: G assay titration, PDZ 0.1 ug/ml
[3] = target: T1, GST-TIP-1 (Example 3) (human), O14907; test: G assay titration, PDZ 0.1 ug/ml
[4] = target: GST-Atrophin-1 Interacting Protein PDZ domain 2 (Homo sapiens (Human)), Q86UL8; test: G' assay; note: key of the grades not given here
Sequence of GST-Atrophin-1 Interacting Protein PDZ domain 2 (Homo sapiens (Human)), Q86UL8 (Q86UL8 other isoform, or with tags, fused parts or gaps): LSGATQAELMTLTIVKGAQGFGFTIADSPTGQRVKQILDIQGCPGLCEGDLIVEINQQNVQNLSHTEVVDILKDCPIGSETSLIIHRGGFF

[5] = target: T2, GST-PSD95 PDZ domain 2 (Homo sapiens); test: G' assay; note: key of the grades not given here
T2 chain: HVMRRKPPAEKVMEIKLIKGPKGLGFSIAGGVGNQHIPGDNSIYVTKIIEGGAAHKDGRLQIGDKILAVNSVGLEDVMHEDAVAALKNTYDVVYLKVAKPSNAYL

[6] = target: T3, GST-FLJ00011 PDZ domain 1 (Homo sapiens (Human)), Q9H5P4; test: G assay titration, PDZ 5 ug/ml
T3 chain: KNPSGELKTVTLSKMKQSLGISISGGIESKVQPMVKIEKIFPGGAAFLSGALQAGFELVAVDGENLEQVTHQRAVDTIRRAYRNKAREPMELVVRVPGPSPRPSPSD

[7] = target: T4, GST-HEMBA 1003117 PDZ domain 1 (Homo sapiens (Human)), Q96JH8; test: G assay titration, PDZ 5 ug/ml
T4 chain: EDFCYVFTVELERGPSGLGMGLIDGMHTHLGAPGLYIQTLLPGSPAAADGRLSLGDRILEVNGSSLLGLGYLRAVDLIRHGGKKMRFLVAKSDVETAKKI

[8] = target: T5, GST-MUPP1 PDZ domain 7 (Homo sapiens (Human)), O75970; test: G assay titration, PDZ 5 ug/ml
T5 chain: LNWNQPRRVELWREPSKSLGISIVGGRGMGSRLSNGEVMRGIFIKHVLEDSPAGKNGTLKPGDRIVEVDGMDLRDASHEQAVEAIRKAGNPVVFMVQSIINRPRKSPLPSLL

[9] = target: T5, GST-MUPP1 PDZ domain 7 (Homo sapiens …); test: G' assay; note: key of the grades not given here
[10] = target: T6, GST-rat SHANK 3 PDZ domain 1 (rat), Q9JLU4; test: G' assay; note: key of the grades not given here
T6 chain: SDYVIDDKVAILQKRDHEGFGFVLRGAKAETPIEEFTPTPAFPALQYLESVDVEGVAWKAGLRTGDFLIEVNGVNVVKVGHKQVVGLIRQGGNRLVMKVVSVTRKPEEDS

[11] = target: T7, GST-LIM Protein PDZ domain 1 (Homo sapiens (Human)), Q96HC4; test: G' assay; note: key of the grades not given here
T7 chain: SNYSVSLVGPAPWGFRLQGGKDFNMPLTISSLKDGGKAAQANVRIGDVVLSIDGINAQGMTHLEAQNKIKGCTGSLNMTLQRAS

[12] = target: T8, GST-novel PDZ gene PDZ domain 2 (Homo sapiens (Human)), Q9H5P4; test: G' assay; note: key of the grades not given here
T8 chain: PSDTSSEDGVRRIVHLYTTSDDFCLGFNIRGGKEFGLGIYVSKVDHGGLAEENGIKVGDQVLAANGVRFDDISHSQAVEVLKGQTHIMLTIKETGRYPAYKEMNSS

[13] = target: T9, GST-SITAC-18 PDZ domain 2 (Homo sapiens (Human)), Q9H190; test: G assay titration, PDZ 5 ug/ml
T9 chain: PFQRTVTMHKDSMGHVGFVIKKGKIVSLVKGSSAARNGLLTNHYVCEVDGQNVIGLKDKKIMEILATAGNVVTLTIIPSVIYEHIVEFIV

[14] = target: T10, GST-SIP1 PDZ domain 2 (Homo sapiens (Human)), Q15599; test: G' assay; note: key of the grades not given here
T10 chain: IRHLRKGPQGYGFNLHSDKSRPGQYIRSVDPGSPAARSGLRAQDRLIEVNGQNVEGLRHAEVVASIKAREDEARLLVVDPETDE

[15] = target: T11, GST-KIAA1719 PDZ domain 1 (Homo sapiens (Human)), Q9C0E4; test: G' assay; note: key of the grades not given here
T11 chain: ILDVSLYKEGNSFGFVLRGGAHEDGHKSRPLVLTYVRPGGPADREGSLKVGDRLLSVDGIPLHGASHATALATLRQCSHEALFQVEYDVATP

[16] = target: T12, GST-KIAA1719 PDZ domain 5 (Homo sapiens (Human)), Q9C0E4; test: G' assay; note: key of the grades not given here
T12 chain: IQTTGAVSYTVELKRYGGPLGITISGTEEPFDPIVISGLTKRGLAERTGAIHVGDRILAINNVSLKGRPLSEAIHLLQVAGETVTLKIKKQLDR

[17] = target: T13, GST-GRIP 1 PDZ domain 7 (Homo sapiens (Human)), Q9Y3R0; test: G' assay; note: key of the grades not given here
T13 chain: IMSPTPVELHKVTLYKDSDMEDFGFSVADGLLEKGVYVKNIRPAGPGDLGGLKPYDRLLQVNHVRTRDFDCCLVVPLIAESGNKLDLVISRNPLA

[18] = target: T14, GST-KIAA1719 PDZ domain 6 (Homo sapiens (Human)), Q9C0E4; test: G' assay; note: key of the grades not given here
T14 chain: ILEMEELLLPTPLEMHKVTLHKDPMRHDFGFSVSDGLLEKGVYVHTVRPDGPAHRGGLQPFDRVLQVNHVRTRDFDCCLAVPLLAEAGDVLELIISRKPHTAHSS

[19] = target: T15, GST-AF6 PDZ domain 1 (Homo sapiens (Human)), P55196; test: G' assay; note: key of the grades not given here
T15 chain: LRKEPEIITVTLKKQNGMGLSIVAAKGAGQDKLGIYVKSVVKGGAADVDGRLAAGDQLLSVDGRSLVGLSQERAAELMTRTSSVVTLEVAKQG

[20] = target: T16, GST-INADL PDZ domain 4 (Homo sapiens (Human)), Q8NI35; test: G' assay; note: key of the grades not given here
T16 chain: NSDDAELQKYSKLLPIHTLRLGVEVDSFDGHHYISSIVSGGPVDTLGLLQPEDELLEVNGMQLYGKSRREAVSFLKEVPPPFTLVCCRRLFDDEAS

**Q.** Which fold stronger binding than CD95 [1] does the source give for QISPGGLEPPSEKHFRETEV (modifications not checked) [TAX] here?
**A.** The fold stronger binding than CD95 was over 3000 fold.

**Q.** And the Kd [2]?
**A.** Its Kd is 200 nM and 130 nM.

**Q.** What about the maximum OD (450 nm) [2] of the same binder?
**A.** Its maximum OD (450 nm) is 1.6 OD and 3.4 OD.

**Q.** What about the Kd [3] of the same binder?
**A.** Its Kd is 5 nM and 6 nM.

**Q.** What about the maximum OD (450 nm) [3] of the same binder?
**A.** Its maximum OD (450 nm) is 3.3 OD and 2.1 OD.

**Q.** What about the Classification [4] of the same binder?
**A.** Its Classification is 1 A450 class.

**Q.** What about the Classification [5] of the same binder?
**A.** The Classification was 1 A450 class.

**Q.** How did the Kd [6] turn out when AWDDSARAAGGQGLHVTAL (modifications not checked) [LPAP] was run?
**A.** The Kd was 1500 nM.

**Q.** With VGTLLLERVIFPSVKIATLV (modifications not checked) [AdenoE4 typ9] as the binder, how does the Kd [7] read?
**A.** Its Kd is 300 nM.

**Q.** KTMPAAMYRLLTAQEQPVYI (modifications not checked) [MINT-1] was tested. Which Kd [8] did it give?
**A.** Its Kd is 1500 nM.

**Q.** And the Classification [9]?
**A.** Its Classification is 3 A450 class.

**Q.** Which Classification [10] does the source give for VPGALDYAAFSSALYGESDL (modifications not checked) [a-actinin 2] here?
**A.** The Classification was 1 A450 class.

**Q.** What about the Classification [11] of the same binder?
**A.** Its Classification is 4 A450 class.

**Q.** Which Classification [12] does the source give for PIPAGGCTFSGIFPTLTSPL (modifications not checked) [KIA 1481] here?
**A.** The Classification was 1 A450 class.

**Q.** ILNSIQVMRAQMNQIQSVEV (modifications not checked) [ephrin B2] was tested. Which Kd [13] did it give?
**A.** The Kd was 5000 nM.

**Q.** And the Classification [14]?
**A.** Its Classification is 2 A450 class.

**Q.** What about the Classification [15] of the same binder?
**A.** Its Classification is 1 A450 class.

**Q.** And the Classification [16]?
**A.** The Classification was 4 A450 class.

**Q.** ELLQFCRTPNPALKNGQYWV (modifications not checked) [CSPG4 (chondroitin sulfae proteoglycan 4, melanoma-associated)] was tested. Which Classification [17] did it give?
**A.** Its Classification is 5 A450 class.

**Q.** And the Classification [18]?
**A.** Its Classification is 5 A450 class.

**Q.** What about the Classification [19] of the same binder?
**A.** The Classification was 5 A450 class.

**Q.** For HDFRRAFKKILARGDRKRIV (modifications not checked) [alpha-2A Adrenergic receptor], which Classification [20] is on record?
**A.** Its Classification is 1 A450 class.
